Results on one substance are retold here after article PMC3913652.

The assay deals with rat GLP-1 receptor (rat) (UniProt P32301).
Sequence of rat GLP-1 receptor (rat) (P32301 22-463): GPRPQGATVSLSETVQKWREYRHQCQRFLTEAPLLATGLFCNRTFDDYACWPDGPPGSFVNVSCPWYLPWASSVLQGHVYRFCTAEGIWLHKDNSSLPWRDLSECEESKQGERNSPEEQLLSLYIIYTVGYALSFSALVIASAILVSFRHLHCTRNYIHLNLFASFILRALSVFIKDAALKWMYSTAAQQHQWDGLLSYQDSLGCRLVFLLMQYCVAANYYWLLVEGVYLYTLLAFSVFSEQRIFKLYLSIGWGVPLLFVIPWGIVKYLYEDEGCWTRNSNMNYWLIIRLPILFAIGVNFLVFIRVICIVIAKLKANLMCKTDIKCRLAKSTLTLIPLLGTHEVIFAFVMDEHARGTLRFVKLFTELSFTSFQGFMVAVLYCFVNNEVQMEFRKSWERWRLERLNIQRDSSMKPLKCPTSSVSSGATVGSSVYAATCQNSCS

In turn, [Leu^14]exenatide (peptide) had an EC50, cAMP in 6–23 clone 6 cells (GLP-1 Receptor Functional Assay, 0.1% BSA) of 6 pM.
